{
  "source": "patent US11905559B2",
  "about": "“Materials and methods for controlling gene expression” (priority 2016, dated 2024)",
  "molecules": {"B1": {"name": "m7: m7 mutant guanine sensing aptamer RNA (SEQ ID NO: 8); U25C in J1/2 (nucleic acid)", "chain": "CACUCAUAUAACCGCGUGGAUAUGGCACGCAAGUUUCUACCGGGCACCGUAAAUGUCCGACUAUGGGUG", "modifications": "RNA, backbone and methylation of C not given here"}},
  "assay": "Constant-force (CF) single-molecule optical tweezers folding assay of guanine-aptamer RNAs in guanine buffer",
  "type": "physicochemical",
  "conditions": "3 mM Mg^2+; for Folding rate kf / Transition distance ΔX / Unfolding rate ku / ΔG (0): 1 uM G; for ΔG (0): zero force",
  "text": "The aptamer folding was monitored in real time using a constant-force (CF) assay. Equilibrium sampling techniques provide unprecedented insights into the rare events in the course of folding that are otherwise difficult to identify. The technique also allows for determination of the kinetic rates that has not been fully investigated in the guanine riboswitch. The relative dynamics of the helices have been investigated in ensemble and smFRET experiments, which indicated a non-dynamic P1-P3, upon which the P2 helix switches conformations. As shown in FIG. 6A (left panel), the RNA oscillated between the linear and the hairpin conformations (E↔D↔C) at 13 pN. The distances ΔXED=7.1±0.4 nm and ΔXDC=7.9±0.4 nm correspond to the folding of a 17±1 nt (P2) and 19±1 nt (P3) respectively (FIGS. 7A-B). The conversion of distances to nucleotides in CF assay are described in Table 2.\nA miniaturized dual beam optical tweezers instrument was constructed with a sampling rate of 0.4, 4 and 40 kHz. Typically, in the tweezers set up (FIGS. 2A-E), a single-molecule of RNA is held between two beads via ˜550 nucleotide (nt) long Handles A and B. Preparation of Handles and the RNA is described in the section above. The streptavidin coated polystyrene bead (diameter 1.5-1.9 μm, Spherotech Inc.) is fixed on a micropipette via suction, and the anti-digoxigenin coated bead (diameter 4.0-4.9 μm, Spherotech Inc.) is held in the dual counter-propagating laser beam. The trap stiffness, K is measured at 0.04-0.06 pN/nm from the power spectrum analysis of the Brownian motion of the trapped bead. For power spectrum analysis, a polystyrene bead with diameter ˜4.6 μm is trapped in the counter-propagating laser beam in aqueous buffer with a fixed trap position. […] The average from 10 beads yielded K˜0.049±0.0008 pN/nm, and the stoke's drag coefficient, y=0.0364±0.0002 pN. s/μm. […] However, the autocorrelation time (τ0) defined as the τ1=1/2πfc as described by Zoldak et al., “Ultrafast folding kinetics and cooperativity of villin headpiece in single-molecule force spectroscopy”. Proc. Natl. Acad. Sci. U.S.A 110, 18156 (2013) sets the detection limit for the observable kinetics, which is different from the sampling frequencies. […] The ACF for the time series of force signal, Fi, with sampling rate δ and N data points, is calculated as,\nIn a constant-force (CF) experiment, the RNA is held at a preset force through feedback control. The preset force typically fluctuated around the mean with a standard deviation ±0.15 pN. In this mode, data is recorded from 4-40 kHz to capture the fast intermediates. The plots are shown as extension vs. time (as in FIG. 6A). In force-jump (FJ) assay, the force is suddenly jumped from one force to another, and then held constant thereafter, as shown in FIGS. 23A-B.\nAll FR, CF and FJ experiments were carried out at an ambient temperature, 25±0.5° C. The buffer in the microfluidics contained 10 mM Tris-HCl, pH 7.5 at 25° C., 250 mM NaCl, 3 mM MgCl2, and purine concentrations as indicated in wild-type aptamer. Unless stated otherwise, Mg^2+ concentration in the buffer was maintained at 3 mM in all experiments. The buffer in mutant m1 contained 5 mm Mg^2+ and 1 μM G, and in m3 contained 5 mM Mg^2+ and 200 nM Guanine. For the remaining m2, m4, m5 and m6 mutants, the buffer in single-molecule experiments was supplemented only with 3 mM Mg^2+ and 200 nM Guanine.\nIn the force-ramp experiment, the trap was moved away (pull cycle) from the micropipette at 200 nm/sec, which corresponded to a loading rate of 7-8 pN/sec. This movement of the trap exerted a tension at the ends of the tethered RNA aptamer. […] In the constant-force (CF) experiment, the RNA was held at a preset force (FIG. 6A). The loading rate in CF experiments was zero. The preset force typically fluctuated around the mean with standard deviation ±0.15 pN. […]",
  "key": {"[1]": {"conditions": "transition BA (P1 folding), F 8.0 pN"}, "[2]": {"conditions": "transition C′B (L2-L3 folding), F 8.0 pN"}, "[3]": {"conditions": "transition DC (P3 folding), F 12.0 pN"}, "[4]": {"conditions": "transition ED (P2 folding), F 13.5 pN"}},
  "note": "Where “and” joins values, the source holds several entries; their conditions need not be identical. Identical values can stand only once.",
  "data": [
    {"molecule": "B1", "values": [
      {"measurement": "Equilibrium force F^eq", "setting": "transition BA (P1 folding), 1 uM G (rates at 8.0 pN)", "value": "7.4 ± 0.2", "unit": "pN"},
      {"measurement": "Folding rate kf", "setting": "[1]", "value": "0.5 ± 0.08", "unit": "s⁻¹"},
      {"measurement": "Transition distance ΔX", "setting": "[1]", "value": "9.6 ± 0.3", "unit": "nm"},
      {"measurement": "Unfolding rate ku", "setting": "[1]", "value": "1.7 ± 0.4", "unit": "s⁻¹"},
      {"measurement": "ΔG (0)", "setting": "transition BA (P1 folding), from data at 8.0 pN", "value": "−11.8 kBT and −11.8 ± 0.6 kBT"},
      {"measurement": "Equilibrium force F^eq", "setting": "transition C′B (L2-L3 folding), 1 uM G (rates at 8.0 pN)", "value": "8.1 ± 0.4", "unit": "pN"},
      {"measurement": "Folding rate kf", "setting": "[2]", "value": "0.9 ± 0.2", "unit": "s⁻¹"},
      {"measurement": "Transition distance ΔX", "setting": "[2]", "value": "3.5 ± 0.2", "unit": "nm"},
      {"measurement": "Unfolding rate ku", "setting": "[2]", "value": "1.2 ± 0.2", "unit": "s⁻¹"},
      {"measurement": "ΔG (0)", "setting": "transition C′B (L2-L3 folding), from data at 8.0 pN", "value": "−6.5 kBT and −6.5 ± 0.5 kBT"},
      {"measurement": "Equilibrium force F^eq", "setting": "transition DC (P3 folding), 1 uM G (rates at 12.0 pN)", "value": "11.8 ± 0.05", "unit": "pN"},
      {"measurement": "Folding rate kf", "setting": "[3]", "value": "16.6 ± 0.5", "unit": "s⁻¹"},
      {"measurement": "Transition distance ΔX", "setting": "[3]", "value": "7.6 ± 0.2", "unit": "nm"},
      {"measurement": "Unfolding rate ku", "setting": "[3]", "value": "28.3 ± 1.0", "unit": "s⁻¹"},
      {"measurement": "ΔG (0)", "setting": "transition DC (P3 folding), from data at 12.0 pN", "value": "−14.8 ± 0.6", "unit": "kBT"},
      {"measurement": "Equilibrium force F^eq", "setting": "transition ED (P2 folding), 1 uM G (rates at 13.5 pN)", "value": "13.3 ± 0.05", "unit": "pN"},
      {"measurement": "Folding rate kf", "setting": "[4]", "value": "10.0 ± 0.3", "unit": "s⁻¹"},
      {"measurement": "Transition distance ΔX", "setting": "[4]", "value": "7.1 ± 0.3", "unit": "nm"},
      {"measurement": "Unfolding rate ku", "setting": "[4]", "value": "20.1 ± 0.5", "unit": "s⁻¹"},
      {"measurement": "ΔG (0)", "setting": "transition ED (P2 folding), from data at 13.5 pN", "value": "−15.8 ± 1.0", "unit": "kBT"}
    ]}
  ]
}
